Measured values: patent CN116355095A
Where two headings read alike, the source gives them in different places.

How the values were obtained:
[1] = target: T1, 人TIGIT重组蛋白 (hTIGIT; TIGIT-hFc 或 TIGIT-his) (human) (UniProt Q495A1); test: ELISA on coated hTIGIT
T1 sequence (looked up): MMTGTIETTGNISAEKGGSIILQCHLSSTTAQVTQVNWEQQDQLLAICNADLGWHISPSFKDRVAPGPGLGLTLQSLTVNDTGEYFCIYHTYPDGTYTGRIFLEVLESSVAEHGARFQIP

[2] = target: T1, 人TIGIT重组蛋白 (hTIGIT; TIGIT-hFc 或 TIGIT-his) (human); test: ELISA on coated hTIGIT; remark: listed apart in the source
[3] = target: 恒河猴TIGIT-mFc (rhesus monkey; mouse); test: ELISA on coated RhTIGIT-mFc
Sequence of 恒河猴TIGIT-mFc (rhesus monkey; mouse) (P01863 other isoform, or with tags, fused parts or gaps): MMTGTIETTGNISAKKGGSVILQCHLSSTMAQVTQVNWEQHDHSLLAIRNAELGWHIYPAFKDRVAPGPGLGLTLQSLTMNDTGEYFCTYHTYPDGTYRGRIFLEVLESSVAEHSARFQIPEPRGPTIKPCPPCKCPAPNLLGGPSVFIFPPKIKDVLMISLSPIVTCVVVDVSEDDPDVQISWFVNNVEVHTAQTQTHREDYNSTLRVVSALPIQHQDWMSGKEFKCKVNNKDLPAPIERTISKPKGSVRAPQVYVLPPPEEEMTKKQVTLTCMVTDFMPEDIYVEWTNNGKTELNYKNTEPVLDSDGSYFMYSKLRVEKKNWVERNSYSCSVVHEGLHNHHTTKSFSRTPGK

[4] = target: T2, CHO-K1-T1001细胞表达的人TIGIT (human) (UniProt Q495A1); test: cell ELISA on fixed hTIGIT+ CHO-K1 cells
T2 sequence (looked up): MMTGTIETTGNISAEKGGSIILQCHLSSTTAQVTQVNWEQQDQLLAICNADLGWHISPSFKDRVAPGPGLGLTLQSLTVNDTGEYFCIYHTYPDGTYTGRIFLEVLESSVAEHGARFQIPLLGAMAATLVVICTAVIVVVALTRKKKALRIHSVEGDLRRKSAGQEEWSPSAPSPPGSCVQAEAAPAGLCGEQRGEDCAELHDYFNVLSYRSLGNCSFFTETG

[5] = target: T2, CHO-K1-T1001细胞表达的人TIGIT (human); test: cell ELISA on fixed hTIGIT+ CHO-K1 cells; remark: listed apart in the source
人TIGIT-hFc (human) [6] = target: 人TIGIT-hFc (human) (UniProt Q495A1); test: blocking ELISA: Bio-CD155 on coated TIGIT-hFc
人TIGIT-hFc (human) [7] = target: 人TIGIT-hFc (human) (UniProt Q495A1); test: blocking ELISA: Bio-CD155 on coated TIGIT-hFc; remark: listed apart in the source

阳性对照抗体Ref1 (罗氏RG6058) (antibody) showed an EC50 [1] of 0.462 nM, an EC50 [2] of 1.13 nM and an EC50 [3] of 0.243 nM. The EC50 [4] was 0.138 nM, the EC50 [5] was 0.0268 nM and the IC50 (人TIGIT-hFc (human) [6]) was 1.19 nM. For the same substance, the IC50 (人TIGIT-hFc (human) [7]) was 3.3 nM.
